Laboratory results: the supplement of paper PMC5998384

Tested on: HeLa Kyoto
Test: melting temperature (median over replicates), in situ; higher = more thermally stable
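Also: HeLa Kyoto cells synchronized by double thymidine or nocodazole block, proteins quantified by TMT10plex mass spectrometry, three independent biological replicates.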

Sequence	melting temperature (cell cycle stage: G1/S) [°C]	melting temperature (cell cycle stage: mitosis) [°C]
MGAKQSGPAAANGRTRAYSGSDLPSSSSGGANGTAGGGGGARAAAAGRFPAQVPSAHQPSASGGAAAAAAAPAAPAAPRSRSLGGAVGSVASGARAAQSPFSIPNSSSGPYGSQDSVHSSPEDGGGGRDRPVGGSPGGPRLVIGSLPAHLSPHMFGGFKCPVCSKFVSSDEMDLHLVMCLTKPRITYNEDVLSKDAGECAICLEELQQGDTIARLPCLCIYHKGCIDEWFEVNRSCPEHPSD [ZNRF2]	52.7	55.1
MGEFKVHRVRFFNYVPSGIRCVAYNNQSNRLAVSRTDGTVEIYNLSANYFQEKFFPGHESRATEALCWAEGQRLFSAGLNGEIMEYDLQALNIKYAMDAFGGPIWSMAASPSGSQLLVGCEDGSVKLFQITPDKIQFERNFDRQKSRILSLSWHPSGTHIAAGSIDYISVFDVKSGSAVHKMIVDRQYMGVSKRKCIVWGVAFLSDGTIISVDSAGKVQFWDSATGTLVKSHLIANADVQSIAVADQEDSFVVGTAEGTVFHFQLVPVTSNSSEKQWVRTKPFQHHTHDVRTVAHSPTALISGGTDTHLVFRPLMEKVEVKNYDAALRKITFPHRCLISCSKKRQLLLFQFAHHLELWRLGSTVATGKNGDTLPLSKNADHLLHLKTKGPENIICSCISPCGSWIAYSTVSRFFLYRLNYEHDNISLKRVSKMPAFLRSALQILFSEDSTKLFVASNQGALHIVQLSGGSFKHLHAFQPQSGTVEAMCLLAVSPDGNWLAASGTSAGVHVYNVKQLKLHCTVPAYNFPVTAMAIAPNTNNLVIAHSDQQVFEYSIPDKQYTDWSRTVQKQGFHHLWLQRDTPITHISFHPKRPMHILLHDAYMFCIIDKSLPLPNDKTLLYNPFPPTNESDVIRRRTAHAFKISKIYKPLLFMDLLDERTLVAVERPLDDIIAQLPPPIKKKKFGT [UTP4]	54.3	52.3
MGLLDRLSVLLGLKKKEVHVLCLGLDNSGKTTIINKLKPSNAQSQNILPTIGFSIEKFKSSSLSFTVFDMSGQGRYRNLWEHYYKEGQAIIFVIDSSDRLRMVVAKEELDTLLNHPDIKHRRIPILFFANKMDLRDAVTSVKVSQLLCLENIKDKPWHICASDAIKGEGLQEGVDWLQDQIQTVKT [ARL6]	–	50.3
MKVLGRSFFWVLFPVLPWAVQAVEHEEVAQRVIKLHRGRGVAAMQSRQWVRDSCRKLSGLLRQKNAVLNKLKTAIGAVEKDVGLSDEEKLFQVHTFEIFQKELNESENSVFQAVYGLQRALQGDYKDVVNMKESSRQRLEALREAAIKEETEYMELLAAEKHQVEALKNMQHQNQSLSMLDEILEDVRKAADRLEEEIEEHAFDDNKSVKGVNFEAVLRVEEEEANSKQNITKREVEDDLGLSMLIDSQNNQYILTKPRDSTIPRADHHFIKDIVTIGMLSLPCGWLCTAIGLPTMFGYIICGVLLGPSGLNSIKSIVQVETLGEFGVFFTLFLVGLEFSPEKLRKVWKISLQGPCYMTLLMIAFGLLWGHLLRIKPTQSVFISTCLSLSSTPLVSRFLMGSARGDKEGDIDYSTVLLGMLVTQDVQLGLFMAVMPTLIQAGASASSSIVVEVLRILVLIGQILFSLAAVFLLCLVIKKYLIGPYYRKLHMESKGNKEILILGISAFIFLMLTVTELLDVSMELGCFLAGALVSSQGPVVTEEIATSIEPIRDFLAIVFFASIGLHVFPTFVAYELTVLVFLTLSVVVMKFLLAALVLSLILPRSSQYIKWIVSAGLAQVSEFSFVLGSRARRAGVISREVYLLILSVTTLSLLLAPVLWRAAITRCVPRPERRSSL [TMCO3]	54.4	52.9
MLAGAGRPGLPQGRHLCWLLCAFTLKLCQAEAPVQEEKLSASTSNLPCWLVEEFVVAEECSPCSNFRAKTTPECGPTGYVEKITCSSSKRNEFKSCRSALMEQRLFWKFEGAVVCVALIFACLVIIRQRQLDRKALEKVRKQIESI [JTB]	–	53.4
MLQQDSNDDTEDVSLFDAEEETTNRPRKAKIRHPVASFFHLFFRVSAIIVYLLCGLLSSSFITCMVTIILLLSCDFWAVKNVTGRLMVGLRWWNHIDEDGKSHWVFESRKESSQENKTVSEAESRIFWLGLIACPVLWVIFAFSALFSFRVKWLAVVIMGVVLQGANLYGYIRCKVRSRKHLTSMATSYFGKQFLRQNTGDDQTS [TVP23B]	–	56
MLRRVTVAAVCATRRKLCEAGRELAALWGIETRGRCEDSAAARPFPILAMPGRNKAKSTCSCPDLQPNGQDLGENSRVARLGADESEEEGRRGSLSNAGDPEIVKSPSDPKQYRYIKLQNGLQALLISDLSNMEGKTGNTTDDEEEEEVEEEEEDDDEDSGAEIEDDDEEGFDDEDEFDDEHDDDLDTEDNELEELEERAEARKKTTEKQSAAALCVGVGSFADPDDLPGLAHFLEHMVFMGSLKYPDENGFDAFLKKHGGSDNASTDCERTVFQFDVQRKYFKEALDRWAQFFIHPLMIRDAIDREVEAVDSEYQLARPSDANRKEMLFGSLARPGHPMGKFFWGNAETLKHEPRKNNIDTHARLREFWMRYYSSHYMTLVVQSKETLDTLEKWVTEIFSQIPNNGLPRPNFGHLTDPFDTPAFNKLYRVVPIRKIHALTITWALPPQQQHYRVKPLHYISWLVGHEGKGSILSFLRKKCWALALFGGNGETGFEQNSTYSVFSISITLTDEGYEHFYEVAYTVFQYLKMLQKLGPEKRIFEEIRKIEDNEFHYQEQTDPVEYVENMCENMQLYPLQDILTGDQLLFEYKPEVIGEALNQLVPQKANLVLLSGANEGKCDLKEKWFGTQYSIEDIENSWAELWNSNFELNPDLHLPAENKYIATDFTLKAFDCPETEYPVKIVNTPQGCLWYKKDNKFKIPKAYIRFHLISPLIQKSAANVVLFDIFVNILTHNLAEPAYEADVAQLEYKLVAGEHGLIIRVKGFNHKLPLLFQLIIDYLAEFNSTPAVFTMITEQLKKTYFNILIKPETLAKDVRLLILEYARWSMIDKYQALMDGLSLESLLSFVKEFKSQLFVEGLVQGNVTSTESMDFLKYVVDKLNFKPLEQEMPVQFQVVELPSGHHLCKVKALNKGDANSEVTVYYQSGTRSLREYTLMELLVMHMEEPCFDFLRTKQTLGYHVYPTCRNTSGILGFSVTVGTQATKYNSEVVDKKIEEFLSSFEEKIENLTEEAFNTQVTALIKLKECEDTHLGEEVDRNWNEVVTQQYLFDRLAHEIEALKSFSKSDLVNWFKAHRGPGSKMLSVHVVGYGKYELEEDGTPSSEDSNSSCEVMQLTYLPTSPLLADCIIPITDIRAFTTTLNLLPYHKIVK [NRDC]	50.5	50.9
MLVTAYLAFVGLLASCLGLELSRCRAKPPGRACSNPSFLRFQLDFYQVYFLALAADWLQAPYLYKLYQHYYFLEGQIAILYVCGLASTVLFGLVASSLVDWLGRKNSCVLFSLTYSLCCLTKLSQDYFVLLVGRALGGLSTALLFSAFEAWYIHEHVERHDFPAEWIPATFARAAFWNHVLAVVAGVAAEAVASWIGLGPVAPFVAAIPLLALAGALALRNWGENYDRQRAFSRTCAGGLRCLLSDRRVLLLGTIQALFESVIFIFVFLWTPVLDPHGAPLGIIFSSFMAASLLGSSLYRIATSKRYHLQPMHLLSLAVLIVVFSLFMLTFSTSPGQESPVESFIAFLLIELACGLYFPSMSFLRRKVIPETEQAGVLNWFRVPLHSLACLGLLVLHDSDRKTGTRNMFSICSAVMVMALLAVVGLFTVVRHDAELRVPSPTEEPYAPEL [MFSD5]	–	54.9
MNCEREQLRGNQEAAAAPDTMAQPYASAQFAPPQNGIPAEYTAPHPHPAPEYTGQTTVPEHTLNLYPPAQTHSEQSPADTSAQTVSGTATQTDDAAPTDGQPQTQPSENTENKSQPKRLHVSNIPFRFRDPDLRQMFGQFGKILDVEIIFNERGSKGFGFVTFENSADADRAREKLHGTVVEGRKIEVNNATARVMTNKKTVNPYTNGWKLNPVVGAVYSPEFYAGTVLLCQANQEGSSMYSAPSSLVYTSAMPGFPYPAATAAAAYRGAHLRGRGRTVYNTFRAAAPPPPIPAYGGVVYQDGFYGADIYGGYAAYRYAQPTPATAAAYSDSYGRVYAADPYHHALAPAPTYGVGAMNAFAPLTDAKTRSHADDVGLVLSSLQASIYRGGYNRFAPY [RBFOX1]	49.8	–
MNHLPEDMENALTGSQSSHASLRNIHSINPTQLMARIESYEGREKKGISDVRRTFCLFVTFDLLFVTLLWIIELNVNGGIENTLEKEVMQYDYYSSYFDIFLLAVFRFKVLILAYAVCRLRHWWAIALTTAVTSAFLLAKVILSKLFSQGAFGYVLPIISFILAWIETWFLDFKVLPQEAEEENRLLIVQDASERAALIPGGLSDGQFYSPPESEAGSEEAEEKQDSEKPLLEL [STARD3NL]	55.4	–
